Test results published in US20070197430A1, “Conjugates And Therapeutic Uses Thereof” (priority 2004, published 2007).
Several values for one entry are separate records, joined by “and”; a condition that tells them apart may be missing. Equal values may be shown once. Values belong to the molecule of their own block, whether it stands above or below them. Bridge positions count the residues as written; N and C are the ends. Peptide text beside a SMILES is read from it.

Experiments:
[1] = molecular target: T1, Bcl-xL ΔC25 (Homo sapiens, UniProt Q07817); assay: Alphascreen GST competition assay with biotinylated BimBH3 peptide; format: binding; conditions: Example 14, two values given per peptide
Description: (§1) Using solution competition assays and Alphascreen GST-detection as described below, the constrained peptide of Example 2 (peptide A) was assessed for competition binding to Bcl-2 homologues, Bcl-w ΔC29, Bcl-xL ΔC25 and Mcl-1 ΔC23.
(§2) All the assays were performed using 384-well white plates in a total volume of 20 μL. The assay buffer is 50 mM HEPES, 10 mM DTT, 100 mM NaCl, 0.05% Tween 20, 0.1 mg/mL casein, pH 7.4. The bead buffer is 50 mM Tris, 1% Tween 20, 0.1 mg/mL casein, pH 7.5.
(§3) For the GST-Bcl-wΔC29 protein assay, protein (0.10 nM), acceptor beads (10 μg/mL), 50% assay buffer and 50% bead buffer were incubated together for 30 minutes. At the same time, biotinylated BimBH3 peptide (Biotin-[…]-OH) (3 nM), donor beads (10 μg/mL), 50% assay buffer and 50% bead buffer were incubated to get for 30 minutes. For the competition binding assay, protein acceptor bead solution (10 μL) and the candidate compound, A, L1 or L2, were added into each well and incubated for 30 minutes, then biotinylated BimBH3 peptide donor bead solution (10 μL) was added into each well. The total DMSO concentration in each well was then adjusted to 0.5% to 2%. Plates were covered with aluminium foil and incubated at room temperature for 4 hours before reading in a Packard Fusion™ reader with excitation at 680 nm and emission at 520-620 nm. […]
Target sequence in this assay (Q07817 1-208 limits assumed): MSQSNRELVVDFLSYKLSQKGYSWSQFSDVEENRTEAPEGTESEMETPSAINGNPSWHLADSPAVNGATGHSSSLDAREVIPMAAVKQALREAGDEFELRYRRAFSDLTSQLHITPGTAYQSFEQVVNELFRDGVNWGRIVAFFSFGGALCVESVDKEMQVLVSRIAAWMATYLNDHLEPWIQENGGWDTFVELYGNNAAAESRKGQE

[2] = molecular target: T2, Bcl-w ΔC29 (Homo sapiens, UniProt Q92843); assay: Alphascreen GST competition assay with biotinylated Bim BH3-26 peptide; format: binding; conditions: Example 14, two values given per peptide
T2 sequence (Q92843 1-164 limits assumed): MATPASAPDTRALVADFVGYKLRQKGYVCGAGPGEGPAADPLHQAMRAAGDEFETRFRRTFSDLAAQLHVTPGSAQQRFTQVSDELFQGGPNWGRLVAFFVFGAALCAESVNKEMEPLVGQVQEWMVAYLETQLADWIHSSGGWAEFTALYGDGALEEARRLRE

[3] = molecular target: Mcl-1 ΔC23; assay: Surface plasmon resonance direct binding (Biacore S51); conditions: SPR dissociation constant
Description: (§4) In separate assay experiments, surface plasmon resonance (SPR) experiments using a Biacore S51 Biosensor were used as proof of direct binding of peptide A to Bcl-w ΔC29, Bcl-xL ΔC25 and Mcl-1 ΔC23. This technique also has the advantage of yielding dissociation constants, which are shown below.

[4] = molecular target: T1, Bcl-xL ΔC25; assay: as above; conditions: SPR dissociation constant
Description: as §4

[5] = system: Mcl-1 ΔC23; assay: Alphascreen GST competition assay with biotinylated BakBH3 peptide; format: binding; conditions: Example 14, two values given per peptide
Description: as §1, §2, §3

[6] = Circular dichroism, alpha-helical content of peptides; format: physicochemical; conditions: 30% aqueous trifluoroethanol
Description: Circular dichroism spectra were obtained using a Jasco Model J-710 spetropolarimeter at 20° C. using the following parameters: path length, 2 mm; step resolution, 0.1 nm; speed, 20 nm/min, accumulation, 4; response, 1 second; bandwidth, 1.0 nm. The peptides were analysed at a concentration of 0.5 mg/mL in 30% aqueous TFE. The alpha-helical content of the peptides were determined by methods described in Yang et al (1986), involving comparisons of spectra with model helical peptides.

[7] = molecular target: T3, Bcl-2 ΔC22 (Homo sapiens, UniProt P10415); assay: Competition assay with biotinylated Bim-BH3 peptide; format: binding; conditions: text says Bcl-2 and Bcl-xL
Description: Alphascreen (Amplified Luminsecent Proximity Homogenous Assay) is a bead based technology which measures a biological interaction between molecules. The assay consists of two hydrogel coated beads which, when bought into close proximity by a binding interaction, allow a transfer of singlet oxygen from a donor bead to an acceptor bead.
Upon binding a photosensitiser in the donor bead converts ambient oxygen to a more excited singlet state. This singlet oxygen then diffuses across to react with a chemiluminescer in the acceptor bead. Fluorophores within the same bead are activated, resulting in the emission of light.
Target sequence in this assay (P10415 1-217 limits assumed): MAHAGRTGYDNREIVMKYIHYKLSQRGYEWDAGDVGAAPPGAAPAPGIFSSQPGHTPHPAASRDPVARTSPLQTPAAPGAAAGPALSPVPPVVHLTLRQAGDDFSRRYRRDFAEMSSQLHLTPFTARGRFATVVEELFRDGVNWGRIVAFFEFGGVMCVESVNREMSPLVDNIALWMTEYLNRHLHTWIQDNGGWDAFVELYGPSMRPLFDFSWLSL

[8] = molecular target: Mcl-1 ΔC23 (UniProt Q07820); assay: SPR, Biacore S51, direct binding
[9] = molecular target: Mcl-1 ΔC23 (UniProt Q07820); assay: AlphaScreen GST detection; competitor: biotinylated BakBH3 peptide
[10] = molecular target: T1, Bcl-xL ΔC25; assay: AlphaScreen GST detection; competitor: biotinylated BimBH3 peptide; second of two values
[11] = molecular target: T1, Bcl-xL ΔC25; assay: AlphaScreen GST detection; competitor: biotinylated BimBH3 peptide
[12] = molecular target: Mcl-1 ΔC23 (UniProt Q07820); assay: AlphaScreen GST detection; competitor: biotinylated BakBH3 peptide; second of two values
[13] = molecular target: GST tagged Bcl w delta C29 protein (UniProt Q92843); assay: competition assay; competitor: biotinylated BIM-BH3 peptide
[14] = molecular target: GST tagged Bcl w delta C29 protein (UniProt Q92843); assay: competition assay; competitor: biotinylated Bim-BH3 peptide
[15] = molecular target: T3, Bcl-2 ΔC22; assay: as above
[16] = molecular target: 6-His tagged Bcl w delta C10 protein (UniProt Q92843); assay: as above
[17] = molecular target: GST tagged Bcl w delta C29 protein (UniProt Q92843); assay: competition assay; competitor: biotinylated Bim BH3 peptide
[18] = molecular target: T1, Bcl-xL ΔC25; assay: SPR, Biacore S51, direct binding
[19] = molecular target: GST tagged Bcl w delta C29 protein (UniProt Q92843); assay: AlphaScreen GST detection; competitor: biotinylated BimBH3 peptide; second of two values
[20] = molecular target: GST tagged Bcl w delta C29 protein (UniProt Q92843); assay: AlphaScreen GST detection; competitor: biotinylated BimBH3 peptide

IC50 [1]: 7000 nM and 6300 nM
IC50 [2]: 820 nM and 800 nM
Kd [3]: 1200 nM
Kd [4]: 5200 nM
IC50 [5]: 400 nM and 360 nM
% Helicity [6]: 9%
Molecule: CC[C@H](C)[C@H](NC(C)=O)C(=O)N[C@@H](C)C(=O)N[C@@H](CCC(N)=O)C(=O)N[C@@H](CCC(=O)O)C(=O)N[C@@H](CC(C)C)C(=O)N[C@@H](CCCNC(=N)N)C(=O)N[C@@H](CCCNC(=N)N)C(=O)N[C@H](C(=O)NCC(=O)N[C@@H](CC(=O)O)C(=O)N[C@@H](CCC(=O)O)C(=O)N[C@@H](Cc1ccccc1)C(N)=O)[C@@H](C)CC [Peptide L1] (Ac-IAQELRRIGDEF-NH2)

IC50 [1]: 960 nM and 890 nM
IC50 [2]: 120 nM
Kd [3]: 920 nM
Kd [4]: 370 nM
IC50 [5]: 650 nM and 660 nM
Molecule: CC[C@H](C)[C@H](NC(C)=O)C(=O)N[C@@H](C)C(=O)N[C@@H](CCC(N)=O)C(=O)N[C@@H](CCC(N)=O)C(=O)N[C@@H](CC(C)C)C(=O)N[C@@H](CCCNC(=N)N)C(=O)N[C@@H](CCCNC(=N)N)C(=O)N[C@H](C(=O)NCC(=O)N[C@@H](CC(=O)O)C(=O)N[C@@H](CCC(N)=O)C(=O)N[C@@H](Cc1ccccc1)C(N)=O)[C@@H](C)CC [Peptide L2] (Ac-IAQQLRRIGDQF-NH2)

affinity over the unconstrained 12-mer, in words [7]: outstanding increases in affinity
% Helicity [6]: 39%
Molecule: CC[C@H](C)[C@H](NC(C)=O)C(=O)N[C@@H](C)C(=O)N[C@@H](CCC(N)=O)C(=O)N[C@H]1CCC(=O)NCCCCCCNC(=O)CC[C@@H](C(=O)N[C@@H](Cc2ccccc2)C(N)=O)NC(=O)[C@H](CC(=O)O)NC(=O)CNC(=O)[C@H]([C@@H](C)CC)NC(=O)[C@H](CCCNC(=N)N)NC(=O)[C@H](CCCNC(=N)N)NC(=O)[C@H](CC(C)C)NC1=O [C, Ac-IAQ-E-LRRIGD-E-F-NH2] (HELM PEPTIDE1{[ac].I.A.Q.E.L.R.R.I.G.D.E.F.[am]}|CHEM1{[C(CCCN[*:2])CCN[*:1]]}$PEPTIDE1,CHEM1,5:R3-1:R1|PEPTIDE1,CHEM1,12:R3-1:R2$$$V2.0)

% Helicity [6]: 16%
Molecule: CC[C@H](C)[C@H](NC(C)=O)C(=O)N[C@@H](C)C(=O)N[C@@H](CCC(N)=O)C(=O)N[C@H]1CCC(=O)NCC(=O)NCCNC(=O)CC[C@@H](C(=O)N[C@@H](Cc2ccccc2)C(N)=O)NC(=O)[C@H](CC(=O)O)NC(=O)CNC(=O)[C@H]([C@@H](C)CC)NC(=O)[C@H](CCCNC(=N)N)NC(=O)[C@H](CCCNC(=N)N)NC(=O)[C@H](CC(C)C)NC1=O [D, Ac-IAQ-E-LRRIGD-E-F-NH2] (HELM PEPTIDE1{[ac].I.A.Q.E.L.R.R.I.G.D.E.F.[am]}|CHEM1{[O=C(CN[*:1])NCCN[*:2]]}$PEPTIDE1,CHEM1,5:R3-1:R1|PEPTIDE1,CHEM1,12:R3-1:R2$$$V2.0)

Kd [8]: 920 nM
IC50 [9]: 650 nM
IC50 [10]: 890 nM
IC50 [11]: 960 nM
IC50 [12]: 660 nM
B1: L2 Ac-…-NH2 (peptide)
peptide: Ac-IAQQLRRIGDQF-NH2

IC50 [13]: 0.5 nM
B2: Peptide E: constrained 16-mer with a pentane linker tethering the two glutamate residues (peptide)
peptide: Ac-IWIAQELRRIGDEFNA-NH2
modifications: linker 6-13 via 1,5‑diaminopentane

IC50 [14]: 160 nM
IC50 [15]: 6900 nM
IC50 [16]: 40 nM
B3: Peptide D: Ac-IAQ-E-LRRIGD-E-F-NH2 with a -NHCH2C(═O)NHCH2CH2NH- linker (peptide)
peptide: IAQELRRIGDEF
HELM: PEPTIDE1{[ac].I.A.Q.E.L.R.R.I.G.D.E.F.[am]}|CHEM1{[O=C(CN[*:1])NCCN[*:2]]}$PEPTIDE1,CHEM1,5:R3-1:R1|PEPTIDE1,CHEM1,12:R3-1:R2$$$V2.0
SMILES: CC[C@H](C)[C@H](NC(C)=O)C(=O)N[C@@H](C)C(=O)N[C@@H](CCC(N)=O)C(=O)N[C@H]1CCC(=O)NCC(=O)NCCNC(=O)CC[C@@H](C(=O)N[C@@H](Cc2ccccc2)C(N)=O)NC(=O)[C@H](CC(=O)O)NC(=O)CNC(=O)[C@H]([C@@H](C)CC)NC(=O)[C@H](CCCNC(=N)N)NC(=O)[C@H](CCCNC(=N)N)NC(=O)[C@H](CC(C)C)NC1=O

IC50 [13]: 0.3 nM
B4: Peptide F: constrained 16-mer with a -NHCH2C(═O)(CH2)2NH2- linker tethering the two glutamic acid residues (peptide)
peptide: Ac-IWIAQELRRIGDEFNA-NH2
modifications: linker 6-13 via ‑NHCH2C(═O)(CH2)2NH2‑

IC50 [13]: 2.5 nM
IC50 [17]: 2.5 nM
B5: linear 16-mer Ac-…-NH2 (peptide)
peptide: Ac-IWIAQELRRIGDEFNA-NH2

IC50 [14]: 120 nM
IC50 [15]: 2600 nM
IC50 [16]: 230 nM
B6: Peptide C: Ac-IAQ-E-LRRIGD-E-F-NH2 with a 1,6-diaminohexane linker (peptide)
peptide: Ac-IAQELRRIGDEF-NH2
modifications: linker 4-11 via 1,6‑diaminohexane

IC50 [14]: 1800 nM
IC50 [15]: 26000 nM
IC50 [16]: 2600 nM
B7: Peptide A of Example 7: Ac-E-IAQELR-E-IGDEF-NH2 with a 1,5-diaminopentane linker (first position) (peptide)
peptide: Ac-EIAQELREIGDEF-NH2
modifications: linker 1-8 via 1,5‑diaminopentane

Kd [8]: 1200 nM
Kd [18]: 5200 nM
IC50 [9]: 400 nM
IC50 [14]: 4700 nM
IC50 [15]: 240000 nM
IC50 [16]: 870 nM
IC50 [19]: 800 nM
IC50 [10]: 6300 nM
IC50 [20]: 820 nM
IC50 [11]: 7000 nM
IC50 [12]: 360 nM
B8: Linear 12mer Ac-…-NH2 (peptide)
peptide: Ac-IAQELRRIGDEF-NH2

Kd [8]: 10 nM
Kd [18]: 10 nM
IC50 [9]: 3 nM
IC50 [14]: 150 nM
IC50 [15]: 290 nM
IC50 [16]: 65 nM
IC50 [19]: 34 nM
IC50 [10]: 54 nM
IC50 [20]: 40 nM
IC50 [11]: 57 nM
IC50 [12]: 3 nM
B9: Acetyl-IAQ(E1)LRRIGD(E2)F-amide with a 1,5-diaminopentane linker (second position) (peptide)
peptide: Ac-IAQELRRIGDEF-NH2
modifications: linker 4-11 via 1,5‑diaminopentane
